Laboratory results as given in IntAct's records for PubMed 9468139.

B1: Retinoblastoma-associated protein (Homo sapiens), P06400 (parent)
chain: MPPKTPRKTAATAAAAAAEPPAPPPPPPPEEDPEQDSGPEDLPLVRLEFEETEEPDFTALCQKLKIPDHVRERAWLTWEKVSSVDGVLGGYIQKKKELWGICIFIAAVDLDEMSFTFTELQKNIEISVHKFFNLLKEIDTSTKVDNAMSRLLKKYDVLFALFSKLERTCELIYLTQPSSSISTEINSALVLKVSWITFLLAKGEVLQMEDDLVISFQLMLCVLDYFIKLSPPMLLKEPYKTAVIPINGSPRTPRRGQNRSARIAKQLENDTRIIEVLCKEHECNIDEVKNVYFKNFIPFMNSLGLVTSNGLPEVENLSKRYEEIYLKNKDLDARLFLDHDKTLQTDSIDSFETQRTPRKSNLDEEVNVIPPHTPVRTVMNTIQQLMMILNSASDQPSENLISYFNNCTVNPKESILKRVKDIGYIFKEKFAKAVGQGCVEIGSQRYKLGVRLYYRVMESMLKSEEERLSIQNFSKLLNDNIFHMSLLACALEVVMATYSRSTSQNLDSGTDLSFPWILNVLNLKAFDFYKVIESFIKAEGNLTREMIKHLERCEHRIMESLAWLSDSPLFDLIKQSKDREGPTDHLESACPLNLPLQNNHTAADMYLSPVRSPKKKGSTTRVNSTANAETQATSAFQTQKPLKSTSLSLFYKKVYRLAYLRLNTLCERLLSEHPELEHIIWTLFQHTLQNEYELMRDRHLDQIMMCSMYGICKVKNIDLKFKIIVTAYKDLPHAVQETFKRVLIKEEEYDSIIVFYNSVFMQRLKTNILQYASTRPPTLSPIPHIPRSPYKFPSSPLRIPGGNIYISPLKSPYKISEGLPTPTKMTPRSRILVSIGESFGTSEKFQKINQMVCNSDRVLKRSAEGSNPPKPLKKLRFDIEGSDEADGSKHLPGESKFQQKLAEMTSTRTRMQKQKMNDSMDTSNKEEK

Variants of: B1
Conditions: with hdac1_human HDAC1, Q13547
hdac1_human HDAC1, Q13547, sequence (Q13547 whole entry): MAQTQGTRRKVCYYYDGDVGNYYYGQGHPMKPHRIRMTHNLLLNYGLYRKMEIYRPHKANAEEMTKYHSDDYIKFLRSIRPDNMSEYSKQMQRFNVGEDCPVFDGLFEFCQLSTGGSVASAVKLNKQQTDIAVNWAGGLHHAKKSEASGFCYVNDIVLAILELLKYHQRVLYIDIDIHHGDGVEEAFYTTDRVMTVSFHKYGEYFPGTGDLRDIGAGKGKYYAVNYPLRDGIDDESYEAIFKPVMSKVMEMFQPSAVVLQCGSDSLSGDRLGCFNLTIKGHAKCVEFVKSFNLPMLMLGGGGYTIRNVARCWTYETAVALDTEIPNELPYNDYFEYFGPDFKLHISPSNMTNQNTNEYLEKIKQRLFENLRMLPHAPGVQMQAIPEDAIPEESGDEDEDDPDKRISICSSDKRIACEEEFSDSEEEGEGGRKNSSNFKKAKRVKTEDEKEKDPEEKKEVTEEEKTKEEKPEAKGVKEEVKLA

effect of a mutation on the interaction | Variant
decreasing interaction | C706F
